From the nanobody polyreactivity screen of Harvey et al. (2022)

Test: yeast display, Sf9 membrane polyspecificity reagent, FACS + sequencing; frameworks hold sequencing errors
Summary of the method: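 Nanobodies came from a synthetic yeast display library in Saccharomyces cerevisiae BJ5465, induced with galactose for 36–48 hours and stained for 1 hour at 4 °C with 10% biotinylated, detergent-solubilized Sf9 membrane reagent. Cells were enriched on streptavidin microbeads and then FACS-sorted, with low and high (top ~1%) gates set on anti-HA fluorescence for expression and streptavidin fluorescence for reagent binding. Each polyreactivity label reflects the gate a clone came from. Genes were amplified by colony PCR, sequenced by MiSeq 2 × 250 and filtered by CDR length.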

Sequence | polyreactivity (PSR sort gate)
QVQLVESGGGLVQAGGRLRLSCAASGRILYLNAMGWYRQAPGKERELVAAITKSGGSTYYADSVKGRFTISRDNAKNTVYLQMNSLKPEDTAVYYCAAEWVYYDYWQRFLYIDYDYWGQGTHVTVSS | high polyreactivity
QVQLVESGGGLVQAGGRLRLSCAASGRTCGYYTMGWYRQAPGKERELVATIRWSGGSTYADSVKGRFTISRDNAKNTVYLQMNSLKPEDTAVYYCAARNRIKWGQGTQVTVSS | high polyreactivity
QVQLVESGGGLVQAGGRLRLSCAASGRTFARYDRGWYRQAPGKELVLVAGMNGDGGSTNYADSVKGRFTISRDNAKNSVYLQMNSLKPEDTAVYYCNVVQEDRTLHVSIKQLSDHWGQGTQVTVSS | low polyreactivity
QVQLVESGGGLVQAGGRLRLSCAASGRTFATNTMGWYIQAPGKEREFVAAISRGGVSTSYADSVKGRFTISRDNAKNTVYLQMNSLKPEDTAVYYCAANHYGFNRNHRHTYVYWGQGTQVTVSS | high polyreactivity
QVQLVESGGGLVQAGGRLRLSCAASGRTFAYYAMGWSRQAPGKERELVAAITRGGSTYYADSVKGRFTISRDNAKNTVYLQMNSLKPEDTAVYYCAAATSPYQDDYWGQGTQVTVSS | low polyreactivity
QVQLVESGGGLVQAGGRLRLSCAASGRTFGYNFMGWYRQAPGKERELVAAISSSGGSTYYADSVKGRFTISRDNGMNTVYLQMNSLKREDTAVYYCNARRGRASGMDYWGQGTQVTVSS | high polyreactivity
QVQLVESGGGLVQAGGRLRLSCAASGRTFKDYAMGWYRQAPGKERELVAGINGSGGSTYYADSVKGRFTISRDNAKNTVYLQMNSLKPEDTAVYYCNADFGYWWDGRRYDYWGQGTQVTVSS | low polyreactivity
QVQLVESGGGLVQAGGRLRLSCAASGRTFKLYAMGWYRQAPRKERELVAAITESGGSTYYADTVKGRFTISRDNAKNTVYLQMNILKPEDTAVDYCARVLQYQKRNDYEYWGQGTQVTVSS | low polyreactivity
QVQLVESGGGLVQAGGRLRLSCAASGRTFLRYAMGWYRQAPGKERELVAAISVSGGNTYYADSVKGRFTISRDNAKNTVYLQMNSLKPEDTAVYYCNKARLAAVFSYPYGYWGQGTQVTVSS | low polyreactivity
QVQLVESGGGLVQAGGRLRLSCAASGRTFNVNVMGWYRQAPGKERELVAAIRYTGGSTYADSVKGRFTISRDNAKNTVYLQMNSLKPEDTALYYCNADTFFPFDHGMDYWGQGTQVTVSS | low polyreactivity
QVQLVESGGGLVQAGGRLRLSCAASGRTFPIYAMGWYRQAPGKERELVAAITRGGRTNYADSVKGRFTISRDNAKNTVYLQMNSLKPEDTAVYYCAARTYGTYLYAEYDYWGQGTQVTVSS | high polyreactivity
QVQLVESGGGLVQAGGRLRLSCAASGRTFRPYALGWYRQPPVKERELVAAIDSSGTSTYYADSVKGRFTISRDNAKNTVYLQMNSLKPEDTAVYDCAQASPDHWYSRYDYWGQGTQVTVSS | low polyreactivity
QVQLVESGGGLVQAGGRLRLSCAASGRTFRRYAMGWYRPAPGTERELVAAISWSGGSTYYADSVKGRFTISRDNAKNSVYLQMNSLKPEDTAVYYCGAETRYGYGYWGQGTQVTVSS | high polyreactivity
QVQLVESGGGLVQAGGRLRLSCAASGSIFASYAMGWYRQAPGKERELVAAITSDGNTYYADSVKGRFTISRDNAKNTVYLPMNSLIPEDTAVYYCAADRYSTYPYAKGTEFYYWGQGTQVTVSS | low polyreactivity
QVQLVESGGGLVQAGGRLRLSCAASGSIFDLNAMGWYRQAPGKERELVAAISSGGGTYYADSVKGRFTISRDNAKNTVYLQMNSLKPEDTAVYYCNRVTRWTYNYWGQGTQVTVSS | high polyreactivity
QVQLVESGGGLVQAGGRLRLSCAASGSIFRYYAMGWYRQATGKERELVAAITRGDSTNYADSVKGRFTISRDNAKNTVYLQMNSLKPEDTAVYYCAASRYHGWYVKMGYWGQGTQVTVSS | high polyreactivity
QVQLVESGGGLVQAGGRLRLSCAASGSIFTPNAMGWYRQAPGKEMELVAAISSSSDRTYYADSVKGRFTISRDNAMITVYLQMNSLNPEDTAVYYCAAETNTWYLFDFWGQGTQVTVSS | high polyreactivity
QVQLVESGGGLVQAGGRLRLSCAASGSIFVGYAMGWYRQAPGKERELVAAISTRGGSTYYAHSVKGRFTISRDNAKNTVYLQMNSLKPEDTAVYYSAADYLDSTYGYVYGWDDYWGQGTQVTVST | low polyreactivity
QVQLVESGGGLVQAGGRLRLSCAASGSIFYGYDMGWYRQAPGKERELVAAITIGGGTTYYADSVKGRFTISRDNAKNTVYLQMNSLKPEDTAVYYCAKTYARPTRVQKYSGEGGYWGQGTQVTVSS | high polyreactivity
QVQLVESGGGLVQAGGRLRLSCAASGSISGYYAMGWYRQAPGKERELVASIRYTGARTYYADSVKGRFTISRDNAKNNVYLQMNSLKPEDTAVYYCAADVKRDRVWGGDYWGQGTQVTVSS | low polyreactivity
QVQLVESGGGLVQAGGRLRLSCAASGSISVTKAMGWYRQAPGTERELVAAISGSGGSTYADSVKGRFTISRDNAKNTVYLQMNSLKPVDTAVYYCDRDRYYTREWYWYRHDHWGQGTQVTVSS | low polyreactivity
QVQLVESGGGLVQAGGRLRLSCAASGSISWVYAMGWYRQAPGTERELVADITDSGDSTYYADSVKGRFTISRDNAKNTVYLQMHSLKPEDTAVYYSAAPGSRHYYIYWPYNYWGQGTQVTVSS | low polyreactivity

Sequence | polyreactivity (PSR sort gate)
QVQLVESGGGLVQAGGRLRLSCAASGSTFAGNAMGWYRQAPGKERELVAAIDSSTGSTYYADSVKGRFTISRDNAKNTVYLQMNSLKAEDTAVYYCNKTSFLVKLDYWGQGTQVTVSS | low polyreactivity
QVQLVESGGGLVQAGGRLRLSCAASGSTFAINAMGWYRQAPGKERELVAAITWSGGSTYYADSVKGRFTISRDNAKNTVYLQMNSLKPEDTAVYYCNAKSYRHLLYIPYKYNYWGQGTQVTVSS | high polyreactivity
QVQLVESGGGLVQAGGRLRLSCAASGSTFGYYAMGWNRQAPGKERELVAAISSRDGSTFYADSVKGRFTISRDNAKNTVFLQMNSLKPDDTAVYYCAKVFFHTPIVPEYDYCGQGTQVTVSS | low polyreactivity
QVQLVESGGGLVQAGGRLRLSCAASGSTFKAYAMGWYRQAPGKERELVAAISSGGSRTYYADSVKGRFTISRDNAKITVYLQMHRLKPEDIEVYYCAARKADTVFKFEYWGQGTLVTVSS | high polyreactivity
QVQLVESGGGLVQAGGRLRLSCAASGSTFKRYVMRLYRQAPGKERELVAAITWSGTRTYYADSVKGRFTISRDNAKNTVYLQMNSLKPEDTAVYYSAAVADRYPYSGYNYYSWGQGTQVTVSS | high polyreactivity
QVQLVESGGGLVQAGGRLRLSCAASGSTFRYYALGWYRQAPGKERELVAVISSTGSRTNYADSVKGRFTISRDNAKNTVYLQMNSLKPEHTAVYYCAADTTRRAPGYYYWGQGTQETVSS | high polyreactivity
QVQLVESGGGLVQAGGRLRLSCAASGSTFTHYAMGWYRQAPGKERELVAAISSGGSTYYADSVKGRFTISRDNAKNTVYLQMNSLKPEDTAVYYCAADYDWHDWWYPHDYWGQGTQVTVSS | low polyreactivity
QVQLVESGGGLVQAGGRLRLSCAASGSTFWLNAMGWSRQATGKERELFADSSRSGGSTYYADSVKGRFTISRDNAKNTVYLQMNSLKPEDTAVYYCAADSWPDQFTVYPGGDYWGQGTQVTVSS | low polyreactivity
QVQLVESGGGLVQAGGRLRLSCAASGSTFWYYAMGWYRQAPGKEREFVAGISTSGVSTYYADSVKGRFTISRDNAKNTVYLQMNSLKPEDTAVYYCAADYIFRRAGWYLMDYWGQGTQVTVSS | high polyreactivity
QVQLVESGGGLVQAGGRLRLSCAASGSTFYWNTMGWYIQAPGKERELVAAISRRGGSTYYADSEKGRFTISRDNAKNTVYLQMNSLKPEETAVYYCNKLLSQRRYHSEMDYWGQGTQVTVSS | high polyreactivity
QVQLVESGGGLVQAGGRLRLSCAASGSTIPRYAMGWSRQAPGKERELVAAITNGGSTNYADSVKGRFTISRDNAKNTVYLQMNSLKPEDTAVYYCAKRFGYRFYYGGQGTQVTVSS | high polyreactivity
QVQLVESGGGLVQAGGRLRLSCAASGTIFGPYAMGWYRQAPGKEREFVAAISRSGTRTNYADSVKGRFTISRDNAKNTVYLQMNSLKPEDTAVYYCAAGYYGPDPRNRYRYNYWGQGTQVTVSS | high polyreactivity
QVQLVESGGGLVQAGGRLRLSCAASGYIFSRYAMGWYRQAPGKERELVAAISKSGSSTYYADSVKGRFTISRDNAKNTVYLQMNSLKPEDTAVYYCATSYSVGYDYWGQGTQVTVSS | high polyreactivity
QVQLVESGGGLVQAGGRLRLSCAASGYTFVVNAMGWYRQAPGKERELVAAITGGDSTNYADSVKGRFTISRDNATNTVYLQMNSLKPEDTAVYYCAKRDVLPFQTVTGSRNDYWGQGTQVTVSS | low polyreactivity
QVQLVESGGGLVQAGGRLRLSCAASVRIFRVYAMGWYRQEPGKERELVAAISWSGGRTYYADSVKGRFTISRDNAKNTVYLQMNSLKPEHTAVYYCAAVSGYALGYDYWGQGTQVTVSS | high polyreactivity
QVQLVESGGGLVQAGGRLRLSCAASVSIFNPYTMGWYRQAPGKERELVAAISYRGGSTYYADSVKGRFTISRDNAKNTVYLQMNSLKREDTAVYYCAAQVRYLGYRYDYWGQGTQVTVSS | high polyreactivity
QVQLVESGGGLVQAGGRLRLSCADSGRTFYYYAMGWYRQAPGKERELVAAIRWRATSTFYADSVKGRFTISRDNAKNTVYLQMNSLKPEDTAVYYCATTGGYRLQAQKYYYWGQGTQVTLSS | high polyreactivity
QVQLVESGGGLVQAGGRLRLSCAPSGRIFVYNAMGWYRQAPGKERELVAAINSGDSTYYADSVKGRFTISRDNAKKTVYLQMNSLKPEDTAVYYCARDGWAFSIYYDLDYWGQGTQVTVSA | low polyreactivity
QVQLVESGGGLVQAGGRLRLSCASSGIIFRYNAMGWYRQAPGKERELVAAISSSGTTNYADSVKGRFTISRDNAKNTVYLQMNSLKPEDTAVYYCAARRSYARRFKNSMEYWGQGTQVTVSS | high polyreactivity
QVQLVESGGGLVQAGGRLRLSCATSGYIFYDYDMGWYRQAPGKERELVAAIRRSTGTTYYADSVKGRFTISRDNEKNTVYLLMISLKPESTAVYYCAALFRPRVHRYDYWGQGTQVTVSS | low polyreactivity
QVQLVESGGGLVQAGGRLRLSCSASGLTVYRKAMGWSRQAPGKEREMVAAITSSGGRTYYADSVKGRFTISRDNAKNTVYLLMNSLKAEDTALYYCAADFCLGYYYWGQGTQVTVSS | high polyreactivity
